Measured values reported in patent publication US8889130B2, “Treatment of osteoarthritis and pain” (Abbvie Inc., priority 2011, dated 2014).

How the values were obtained:
[1] = Size exclusion chromatography (SEC): physical homogeneity and in vitro stability; assay type: physicochemical; details: 0.2-0.4 mg/ml in PBS, SEC
Procedure: For measuring molecular weight (MW) of light and heavy chains of DVD-Ig binding protein, 10 μL of DVD-Ig molecule (0.8 μg/μL) was reduced by 1.0 M DTT solution (5 μL). A PLRP-S, 8μ, 4000 A, and 1×150 mm protein column (Michrom BioResource, Auburn, Mass.) was used to separate heavy and light chains of DVD-Ig molecule. Agilent HP1100 Capillary HPLC (Agilent Technologies Inc., Pala Alto, Calif.) was used with the mass spectrometer QSTAR (Applied Biosystems, Foster City, Calif.). The valco valve was set at 10 minutes to switch the flow from waste to MS for desalting sample. Buffer A was 0.02% TFA, 0.08% FA, 0.1% ACN and 99.8% HPLC-H2O. Buffer B contained 0.02% TFA, 0.08% FA, 0.1% HPLC-H2O, and 99.8% ACN. The HPLC flow rate was 50 μL/minute and the sample injection volume was […]. The temperature of the column oven was set at 60° C., and separation gradient was: 5% B for 5 minutes; 5% B to 65% B for 35 minutes; 65% B to 95% B for another 5 minutes, and 95% B to 5% B for 5 minutes. TOFMS scan was from 800 to 2500 amu, and cycles were 3600. To determine the MW of full length DVD-Ig binding protein, a Protein MicroTrap cartridge (Michrom BioResource, Auburn, Mass.) was used for desalting the sample. The HPLC gradient was: 5% B for 5 minutes; 5% B to 95% B in 1 minute; and from 95% B to 5% B in another 4 minutes. The QSTAR TOFMS scan was from 2000 to 3500 amu, and cycles were 899. All MS raw data were analyzed using the Analyst QS software (Applied Biosystems). For SEC analysis of the DVD-Ig binding protein, purified DVD-Ig binding protein and chimeric Abs, in PBS, were applied on a Superose 6 10/300 G2, 300×10 mm column (Amersham Bioscience, Piscataway, N.J.). An HPLC instrument, Model 10A (Shimadzu, Columbia, Md.) was used for SEC. All proteins were determined using UV detection at 280 nm and 214 nm. The elution was isocratic at a flow rate of 0.5 mL/minute. For stability study, samples in the concentration range of 0.2-0.4 mg/ml in PBS underwent 3 freeze-thaw cycles between −80° C. and 25° C., or were incubated at 4° C., 25° C., or 40° C., for 4 weeks and 8 weeks, followed by SEC analysis.
In order to determine the precise molecular weight of the DVD-Ig binding proteins, mass spectrometry was employed. […] To further study the physical properties of DVD-Ig binding protein in solution, size exclusion chromatography (SEC) was used to analyze each protein.
The physical stability of DVD-Ig was tested as follows. Purified antibodies in the concentration range of 0.2-0.4 mg/ml in PBS underwent 3 freeze-thaw cycles between −80° C. and 25° C., or were incubated at 4° C., 25° C., or 40° C., for 4 weeks and 8 weeks, followed by analysis using size exclusion chromatography (SEC) analysis (see Table 12).

hIL-1α = target: T1, hIL-1α (Homo sapiens, UniProt P01583); experiment: Surface plasmon resonance (Biacore) binding kinetics and affinity to hIL-1α; details: antigen hIL-1α
T1 sequence (P01583 113-271): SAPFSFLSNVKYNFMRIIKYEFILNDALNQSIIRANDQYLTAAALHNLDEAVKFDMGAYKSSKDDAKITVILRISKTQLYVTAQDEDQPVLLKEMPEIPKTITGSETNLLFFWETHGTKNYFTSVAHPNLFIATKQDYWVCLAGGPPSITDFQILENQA
Procedure: (§1) The kinetics of DVD-Ig molecules binding to rhIL1-α and rhIL1-β was determined by surface plasmon resonance-based measurements with a Biacore 3000 instrument (Biacore AB, Uppsala, Sweden) using HBS-EP (10 mM HEPES, pH 7.4, 150 mM NaCl, 3 mM EDTA, and 0.005% surfactant P20) at 25° C. All chemicals were obtained from Biacore AB (Uppsala, Sweden) or otherwise from a different source as described herein. Approximately, 5000 RU of goat anti-human IgG Fcγ fragment specific polyclonal antibody (Pierce Biotechnology Inc, Rockford, Ill.) diluted in 10 mM sodium acetate (pH 4.5) was directly immobilized across a CM5 research grade biosensor chip using a standard amine coupling kit according to manufacturer's instructions and procedures at […]. Unreacted moieties on the biosensor surface were blocked with ethanolamine. Modified carboxymethyl dextran surface in flowcell 2 and 4 was used as a reaction surface. Unmodified carboxymethyl dextran without goat anti-human IgG in flow cell 1 and 3 was used as the reference surface. For kinetic analysis, rate equations derived from the 1:1 Langmuir binding model were fitted simultaneously to association and dissociation phases of all ten injections (using global fit analysis) using the Bioevaluation 4.0.1 software. Purified DVD-Ig samples were diluted in HEPES-buffered saline for capture across goat anti-human IgG Fc specific reaction surfaces and injected over reaction matrices at a flow rate of […]. The association and dissociation rate constants, kon (M-1s-1) and koff (s-1) were determined under a continuous flow rate of […]. Rate constants were derived by making kinetic binding measurements at ten different antigen concentrations ranging from 1.25 to 1000 nM. The equilibrium dissociation constant (M) of the reaction between DVD-Ig molecule and rhIL1α/β was then calculated from the kinetic rate constants by the following formula: KD=koff/kon. Aliquots of rhIL1α/β samples were also simultaneously injected over a blank reference and reaction CM surface to record and subtract any nonspecific binding background to eliminate the majority of the refractive index change and injection noise. Surfaces were regenerated with two subsequent […] injections of 10 mM Glycine (pH 1.5) at a flow rate of […]. The anti-Fc antibody immobilized surfaces were completely regenerated and retained their full capture capacity over twelve cycles. The apparent stoichiometry of the captured DVD-Ig-rhIL1α/β complex was calculated under saturating binding conditions (steady-state equilibrium) using the following formula: […]

hIL-1β = hIL-1β (Homo sapiens, UniProt P01584); experiment: Surface plasmon resonance (Biacore) binding kinetics and affinity to hIL-1β; details: antigen hIL-1β
Sequence of hIL-1β (P01584 117-269): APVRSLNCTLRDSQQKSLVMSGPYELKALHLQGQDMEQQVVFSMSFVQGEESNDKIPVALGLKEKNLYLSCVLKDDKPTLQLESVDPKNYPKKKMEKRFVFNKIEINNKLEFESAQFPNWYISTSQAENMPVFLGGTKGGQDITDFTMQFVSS
Procedure: as §1

[2] = 3xFreeze-Thaw between −80° C. and 25° C.

Row | Molecule | Ab (intact antibody) [1, 2] | Agg (aggregates) [1, 2] | Frgm (fragments) [1, 2] | Ab (intact antibody) ([1]; 4° C. @ 4 Wks) | Agg (aggregates) ([1]; 4° C. @ 4 Wks) | Frgm (fragments) ([1]; 4° C. @ 4 Wks) | Ab (intact antibody) ([1]; 4° C. @ 8 Wks) | Agg (aggregates) ([1]; 4° C. @ 8 Wks) | Frgm (fragments) ([1]; 4° C. @ 8 Wks) | Ab (intact antibody) ([1]; 25° C. @ 4 Wks) | Agg (aggregates) ([1]; 25° C. @ 4 Wks) | Frgm (fragments) ([1]; 25° C. @ 4 Wks) | Ab (intact antibody) ([1]; 25° C. @ 8 Wks) | Frgm (fragments) ([1]; 25° C. @ 8 Wks) | Ab (intact antibody) ([1]; 40° C. @ 4 Wks) | Agg (aggregates) ([1]; 40° C. @ 4 Wks) | Frgm (fragments) ([1]; 40° C. @ 4 Wks) | Ab (intact antibody) ([1]; 40° C. @ 8 Wks) | Agg (aggregates) ([1]; 40° C. @ 8 Wks) | Frgm (fragments) ([1]; 40° C. @ 8 Wks) | also measured
1 | 3D12.E3-Ch: murine-human chimeric form of 3D12.E3 (anti-hIL-1α) with human constant region (antibody, V domains shown) VH: QIQLVQSGPELKKPGETVKISCKASGYTFRNYGMNWVKQAPGKDLKRMAWINTYTGESTYADDFKGRFAFSLETSASTAYLQINNLKNEDTATYFCARGIYYYGSSYAMDYWGQGTSVTVSS VL: NIQMTQTTSSLSASLGDRVTISCRASQDISNCLNWYQQKPDGTVKLLIYYTSRLHSGVPSRFSGSGSGTDYSLTISNLEQEDIATYFCQQGKTLPYAFGGGTKLEINR | 98.28 percentage | 1.72 percentage | 0.00 percentage | 99.15 percentage | 0.85 percentage | 0.00 percentage | 90.33 percentage | 5.35 percentage | 4.32 percentage | 98.71 percentage | 1.29 percentage | 0.00 percentage | 60.55 percentage | 38.34 percentage | 98.35 percentage | 1.65 percentage | 0.00 percentage | 81.47 percentage | 4.74 percentage | 13.79 percentage | koff (hIL-1α): 0.000552 s⁻¹; kon (hIL-1α): 412000 M⁻¹ s⁻¹
2 | 3D12.E3: murine monoclonal antibody to human IL-1α; VH SEQ ID NO: 89, VL SEQ ID NO: 90 (antibody, listed as Mus musculus, V domains shown) VH: QIQLVQSGPELKKPGETVKISCKASGYTFRNYGMNWVKQAPGKDLKRMAWINTYTGESTYADDFKGRFAFSLETSASTAYLQINNLKNEDTATYFCARGIYYYGSSYAMDYWGQGTSVTVSS VL: NIQMTQTTSSLSASLGDRVTISCRASQDISNCLNWYQQKPDGTVKLLIYYTSRLHSGVPSRFSGSGSGTDYSLTISNLEQEDIATYFCQQGKTLPYAFGGGTKLEINR |  |  |  |  |  |  |  |  |  |  |  |  |  |  |  |  |  |  |  |  | koff (hIL-1α): 0.000713 s⁻¹; kon (hIL-1α): 643000 M⁻¹ s⁻¹
3 | 13F5.G5-Ch: murine-human chimeric form of 13F5.G5 (anti-hIL-1β) with human constant region (antibody, V domains shown) VH: QVQLQQSGAELVRPGSSVKISCKASGYAFSSYWMNWVKQRPGQGLEWIGQIYPGDGDTNYNGKFKGKATLTADKSSSTSYMQLSGLTSEDSAMYFCVRFPTGNDYYAMDYWGQGTSVTVSS VL: NIVLTQSPASLAVSLGQRATISCRASESVDSYGNSYMHWYQQKPGQPPKLLIYLASNLESGVPARFSGSGSRTDFTLTIDPVEADDAATYYCQQNNEDPFTFGSGTKLEIKR | 87.0 percentage | 13.0 percentage | 0.0 percentage | 95.8 percentage | 4.2 percentage | 0.0 percentage | 97.8 percentage | 2.2 percentage | 0.0 percentage | 100.0 percentage | 0.0 percentage | 0.0 percentage | 97.5 percentage | 1.0 percentage | 78.1 percentage | 20.3 percentage | 1.6 percentage | 65.4 percentage | 34.6 percentage | 0.0 percentage | koff (hIL-1β): 0.000654 s⁻¹; kon (hIL-1β): 1.41e+06 M⁻¹ s⁻¹; Agg (aggregates) ([1]; 25° C. @ 8 Wks): 1.4 percentage
4 | 13F5.G5: murine monoclonal antibody to human IL-1β; VH SEQ ID NO: 95, VL SEQ ID NO: 96 (antibody, listed as Mus musculus, V domains shown) VH: QVQLQQSGAELVRPGSSVKISCKASGYAFSSYWMNWVKQRPGQGLEWIGQIYPGDGDTNYNGKFKGKATLTADKSSSTSYMQLSGLTSEDSAMYFCVRFPTGNDYYAMDYWGQGTSVTVSS VL: NIVLTQSPASLAVSLGQRATISCRASESVDSYGNSYMHWYQQKPGQPPKLLIYLASNLESGVPARFSGSGSRTDFTLTIDPVEADDAATYYCQQNNEDPFTFGSGTKLEIKR |  |  |  |  |  |  |  |  |  |  |  |  |  |  |  |  |  |  |  |  | koff (hIL-1β): 0.000621 s⁻¹; kon (hIL-1β): 2.13e+06 M⁻¹ s⁻¹
